Biological target: Biotinylated SP16 (human) (UniProt P01009)
Assay: SPR

Recombinant human insulin receptor/CD220 (28-944) protein, His Tag (from UniProt P06213-2 28-944)
Kd: 185 nM

From publication doi:10.1101/2025.06.17.660082
